Measured values taken from patent US20220387579A1.

Target: RSV F A strain Viral Protein (Respiratory Syncytial Virus A strain)
Experiment: SPR

Substance: Palivizumab
- Kd: 0.26 nM
